This note sets out measurements from patent publication US20230257470A1 (published 2023).

This assay has as its target T1, human FcγRIIb (human, UniProt P31994 43-217, limits assumed).
T1 construct: Whole entry (AAI46679.1); also called FcγIIB; FcgRIIb
T1 sequence: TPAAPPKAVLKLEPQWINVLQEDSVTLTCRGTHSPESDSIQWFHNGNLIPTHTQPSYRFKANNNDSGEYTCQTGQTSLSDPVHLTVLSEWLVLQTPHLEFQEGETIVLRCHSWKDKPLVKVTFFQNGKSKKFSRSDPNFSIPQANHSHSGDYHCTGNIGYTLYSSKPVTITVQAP
The assay is described as follows: ratio of SPR KD values: KD for FcγRIIaR divided by KD for FcγRIIb.

Description: Next, interaction between these antibodies and FcγR was analyzed kinetically using the BIACORE™ T100 (GE Healthcare). The interaction was measured at a temperature of 25° C. using HBS-EP+ (GE Healthcare) for the running buffer. The Series S Sensor Chip CM5 (GE Healthcare) was used after immobilizing Protein A by amine coupling. […] Antibody captured on the chip was washed by allowing 10 mM glycine-HCl (pH 1.5) to react following measurement. The chip regenerated in this manner was used repeatedly. The dissociation constant KD (mol/L) was calculated from the association rate constant ka (L/mol/s) and dissociation rate constant kd (1/s) as calculated by global-fitting the measurement results with a 1:1 Langmuir binding model using the BIACORE™ Evaluation Software.
Furthermore, KD(IIaR)/KD(IIb) and KD(IIaH)/KD(IIb) in the table respectively represent the value obtained by dividing the KD value of each variant for FcγRIIaR by the KD value of each variant for FcγRIIb, and the value obtained by dividing the KD value of each variant for FcγRIIaH by the KD value of each variant for FcγRIIb.

B1: IL6R-BP087/IL6R-L (antibody, human IgG1, name in EU numbering)
heavy: QVQLQESGPGLVKPSETLSLTCAVSGHSISHDHAWSWVRQPPGEGLEWIGFISYSGITNYNPSLQGRVTISRDNSKNTLYLQMNSLRAEDTAVYYCARSLARTTAMDYWGEGTLVTVSSASTKGPSVFPLAPSSKSTSGGTAALGCLVKDYFPEPVTVSWNSGALTSGVHTFPAVLQSSGLYSLSSVVTVPSSSLGTQTYICNVNHKPSNTKVDKKVEPKSCDKTHTCPPCPAPEYLGGDSVFLFPPKPKDTLMISRTPEVTCVVVDVSHEDPEVKFNWYVDGVEVHNAKTKPREEQYNSTYRVVSVLTVLHQDWLNGKEYKCKVSNKALPKPIEKTISKAKGQPREPQVYTLPPSRDELTKNQVSLTCLVKGFYPSDIAVEWESNGQPENNYKTTPPVLDSDGSFFLYSKLTVDKSRWQQGNVFSCSVMHEALHNHYTQESLSLSP
light: DIQMTQSPSSLSASVGDRVTITCRASQDISSYLNWYQQKPGKAPKLLIYYTSRLHSGVPSRFSGSGSGTDFTFTISSLQPEDIATYYCQQGNTLPYTFGQGTKVEIK
notes: Alterations introduced into IL6R-B3 (EU numbering)
B1: the “KD(IIaR)/KD(IIb)” value turned out to be 15.

B2: IL6R-BP179/IL6R-L (antibody, human IgG1, name in EU numbering)
heavy: QVQLQESGPGLVKPSETLSLTCAVSGHSISHDHAWSWVRQPPGEGLEWIGFISYSGITNYNPSLQGRVTISRDNSKNTLYLQMNSLRAEDTAVYYCARSLARTTAMDYWGEGTLVTVSSASTKGPSVFPLAPSSKSTSGGTAALGCLVKDYFPEPVTVSWNSGALTSGVHTFPAVLQSSGLYSLSSVVTVPSSSLGTQTYICNVNHKPSNTKVDKKVEPKSCDKTHTCPPCPAPELLGDDSVFLFPPKPKDTLMISRTPEVTCVVVDVSHEDGEVKFNWYVDGVEVHNAKTKPREEQYNSTYRVVSVLTVLHQDWLNGKEYKCKVSNAALPKPIEKTISKAKGQPREPQVYTLPPSRDELTKNQVSLTCLVKGFYPSDIAVEWESNGQPENNYKTTPPVLDSDGSFFLYSKLTVDKSRWQQGNVFSCSVMHEALHNHYTQESLSLSP
light: DIQMTQSPSSLSASVGDRVTITCRASQDISSYLNWYQQKPGKAPKLLIYYTSRLHSGVPSRFSGSGSGTDFTFTISSLQPEDIATYYCQQGNTLPYTFGQGTKVEIK
notes: as for B1
As for B2, the “KD(IIaR)/KD(IIb)” value is 15.7.

B3: IL6R-BP089/IL6R-L (antibody, human IgG1, name in EU numbering)
heavy: QVQLQESGPGLVKPSETLSLTCAVSGHSISHDHAWSWVRQPPGEGLEWIGFISYSGITNYNPSLQGRVTISRDNSKNTLYLQMNSLRAEDTAVYYCARSLARTTAMDYWGEGTLVTVSSASTKGPSVFPLAPSSKSTSGGTAALGCLVKDYFPEPVTVSWNSGALTSGVHTFPAVLQSSGLYSLSSVVTVPSSSLGTQTYICNVNHKPSNTKVDKKVEPKSCDKTHTCPPCPAPEYLGGDSVFLFPPKPKDTLMISRTPEVTCVVVDVSHEDPEVKFNWYVDGVEVHNAKTKPREEQYNSTYRVVSVLTVLHQDWLNGKEYKCKVSNAALPKPIEKTISKAKGQPREPQVYTLPPSRDELTKNQVSLTCLVKGFYPSDIAVEWESNGQPENNYKTTPPVLDSDGSFFLYSKLTVDKSRWQQGNVFSCSVMHEALHNHYTQESLSLSP
light: DIQMTQSPSSLSASVGDRVTITCRASQDISSYLNWYQQKPGKAPKLLIYYTSRLHSGVPSRFSGSGSGTDFTFTISSLQPEDIATYYCQQGNTLPYTFGQGTKVEIK
notes: as for B1
As to B3, the “KD(IIaR)/KD(IIb)” value was determined as 15.5.

B4: IL6R-BP151/IL6R-L (antibody, human IgG1, name in EU numbering)
heavy: QVQLQESGPGLVKPSETLSLTCAVSGHSISHDHAWSWVRQPPGEGLEWIGFISYSGITNYNPSLQGRVTISRDNSKNTLYLQMNSLRAEDTAVYYCARSLARTTAMDYWGEGTLVTVSSASTKGPSVFPLAPSSKSTSGGTAALGCLVKDYFPEPVTVSWNSGALTSGVHTFPAVLQSSGLYSLSSVVTVPSSSLGTQTYICNVNHKPSNTKVDKKVEPKSCDKTHTCPPCPAPDYLGDDSVFLFPPKPKDTLMISRTPEVTCVVVDVSHEDPEVKFNWYVDGVEVHNAKTKPREEQYNSTYRVVSVLTVLHQDWLNGKEYKCKVSNAALPRPIEKTISKAKGQPREPQVYTLPPSRDELTKNQVSLTCLVKGFYPSDIAVEWESNGQPENNYKTTPPVLDSDGSFFLYSKLTVDKSRWQQGNVFSCSVMHEALHNHYTQESLSLSP
light: DIQMTQSPSSLSASVGDRVTITCRASQDISSYLNWYQQKPGKAPKLLIYYTSRLHSGVPSRFSGSGSGTDFTFTISSLQPEDIATYYCQQGNTLPYTFGQGTKVEIK
notes: as for B1
As for B4, the “KD(IIaR)/KD(IIb)” value was 15.9.
